The text below walks through data of PMC4748816 (RNA, 2016).

One may read the stoichiometry N as a count of units in the complex or per binding partner. By Kd is commonly meant the concentration at which binding is half-saturated. Read a high Kd as a looser complex. As a reminder, the IC50 is the concentration at which inhibition is half-maximal. Read a high IC50 as weaker potency. A word on the Ki: it is a dissociation constant, usually derived from enzyme kinetics or from competition with a known ligand. The low end stands for higher affinity, the high end for lower affinity.

In data set [1] the target is GST-Loqs-3 (minimal linker plus dsRBD3) (Drosophila) (UniProt Q9VJY9). Put plainly: pull-down.
For data set [2], the target named is Alexa Fluor 647-labeled Loqs-3 (Loqs-3^AF647), single-labeled dimer fraction (Drosophila) (UniProt Q9VJY9). In words: SEC. (In general: Size exclusion chromatography separates by hydrodynamic size, large species first.)
Data set [3] has as its target His-tagged GFP-dmDcr1 (Drosophila) (UniProt Q9VCU9). Put plainly: fluorescence cross-correlation spectroscopy.
The target of another data set is His-tagged GFP-dmDcr1 (Drosophila, UniProt Q9VCU9 1-2249). Put plainly: fluorescence cross-correlation spectroscopy.
The data set “SEC” deals with the molecule itself. Put plainly: SEC.

Chain of His-tagged GFP-dmDcr1 (Q9VCU9 whole entry): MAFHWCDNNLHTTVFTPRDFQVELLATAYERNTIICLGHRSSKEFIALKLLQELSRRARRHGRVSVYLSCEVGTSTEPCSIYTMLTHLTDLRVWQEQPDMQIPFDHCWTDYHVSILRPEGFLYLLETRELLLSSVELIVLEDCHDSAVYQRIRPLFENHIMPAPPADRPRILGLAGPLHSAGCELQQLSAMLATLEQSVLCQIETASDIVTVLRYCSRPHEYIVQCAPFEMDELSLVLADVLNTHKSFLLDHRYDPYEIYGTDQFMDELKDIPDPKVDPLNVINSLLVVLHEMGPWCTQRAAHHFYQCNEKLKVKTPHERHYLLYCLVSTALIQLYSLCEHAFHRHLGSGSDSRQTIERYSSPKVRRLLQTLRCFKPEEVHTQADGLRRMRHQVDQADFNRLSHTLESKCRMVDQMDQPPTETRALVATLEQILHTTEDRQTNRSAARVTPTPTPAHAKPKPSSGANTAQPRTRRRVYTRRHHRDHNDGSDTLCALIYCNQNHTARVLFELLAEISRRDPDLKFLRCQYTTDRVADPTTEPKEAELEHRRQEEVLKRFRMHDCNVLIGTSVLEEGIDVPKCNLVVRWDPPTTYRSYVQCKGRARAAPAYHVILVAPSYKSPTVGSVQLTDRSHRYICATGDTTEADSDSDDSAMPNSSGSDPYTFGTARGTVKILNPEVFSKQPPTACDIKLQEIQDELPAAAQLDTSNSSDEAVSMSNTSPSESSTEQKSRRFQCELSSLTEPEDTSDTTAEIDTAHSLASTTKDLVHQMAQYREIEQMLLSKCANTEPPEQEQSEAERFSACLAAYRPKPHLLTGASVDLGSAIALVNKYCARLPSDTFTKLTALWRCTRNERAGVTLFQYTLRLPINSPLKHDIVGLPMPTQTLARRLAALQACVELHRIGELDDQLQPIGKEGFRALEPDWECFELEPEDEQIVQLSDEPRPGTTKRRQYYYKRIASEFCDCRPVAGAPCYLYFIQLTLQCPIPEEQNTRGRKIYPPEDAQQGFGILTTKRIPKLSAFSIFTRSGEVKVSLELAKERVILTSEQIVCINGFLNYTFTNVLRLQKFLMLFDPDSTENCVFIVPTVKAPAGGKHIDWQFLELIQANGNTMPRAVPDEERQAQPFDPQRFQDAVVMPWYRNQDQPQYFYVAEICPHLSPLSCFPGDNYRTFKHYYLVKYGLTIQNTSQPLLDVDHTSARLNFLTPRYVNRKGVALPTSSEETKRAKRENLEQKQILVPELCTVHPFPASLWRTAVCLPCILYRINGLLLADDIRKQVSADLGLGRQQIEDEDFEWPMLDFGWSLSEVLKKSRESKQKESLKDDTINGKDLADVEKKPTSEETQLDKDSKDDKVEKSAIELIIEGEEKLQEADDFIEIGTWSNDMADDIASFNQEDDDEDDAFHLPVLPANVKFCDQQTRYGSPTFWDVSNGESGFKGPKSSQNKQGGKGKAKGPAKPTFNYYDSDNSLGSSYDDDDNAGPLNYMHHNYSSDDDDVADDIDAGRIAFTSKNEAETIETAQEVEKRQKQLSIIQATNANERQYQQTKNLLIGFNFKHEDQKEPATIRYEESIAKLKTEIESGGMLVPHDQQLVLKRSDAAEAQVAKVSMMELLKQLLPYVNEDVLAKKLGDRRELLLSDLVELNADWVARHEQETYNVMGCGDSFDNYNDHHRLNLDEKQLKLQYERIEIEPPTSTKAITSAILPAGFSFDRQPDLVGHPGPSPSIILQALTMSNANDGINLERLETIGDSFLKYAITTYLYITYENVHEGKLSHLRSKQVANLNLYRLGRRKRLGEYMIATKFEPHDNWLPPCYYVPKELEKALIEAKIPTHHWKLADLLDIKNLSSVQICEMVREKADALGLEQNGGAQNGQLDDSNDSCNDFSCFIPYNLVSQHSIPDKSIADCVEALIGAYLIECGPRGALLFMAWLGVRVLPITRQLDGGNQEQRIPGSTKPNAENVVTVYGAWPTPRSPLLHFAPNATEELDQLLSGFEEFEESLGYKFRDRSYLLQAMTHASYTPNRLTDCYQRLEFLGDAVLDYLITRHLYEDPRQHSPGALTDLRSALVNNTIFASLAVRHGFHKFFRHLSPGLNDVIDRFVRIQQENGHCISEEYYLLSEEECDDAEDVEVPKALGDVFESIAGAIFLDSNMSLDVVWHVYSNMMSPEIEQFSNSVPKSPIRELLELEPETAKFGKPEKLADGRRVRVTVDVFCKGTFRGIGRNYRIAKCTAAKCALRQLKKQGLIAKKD
Chain of His-tagged GFP-dmDcr1 (Drosophila) (Q9VCU9 whole entry): as above

For the molecule “His-tagged dmDcr1 (Drosophila Dicer1), Q9VCU9 1-2249”, in data set [1], the fold binding against dsRBD3 alone turned out to be 10 fold.

In turn, “Alexa Fluor 647-labeled Loqs-3 (Loqs-3^AF647), single-labeled dimer fraction (from UniProt Q9VJY9 368-463) (domain or fragment)” had a stoichiometry N in data set [2] of 2.

In turn, “Alexa Fluor 647-labeled dsRBD3 (dsRDB3^AF647) (from UniProt Q9VJY9 392-463) (domain or fragment)” had a Kd in data set [3] of 192 nM.

B1: Loqs dsRBD3, unlabeled, purified (domain or fragment, Drosophila)
chain: IDYIKLLGEIATENQFEVTYVDIEEKTFSGQFQCLVQLSTLPVGVCHGSGPTAADAQRHAAQNALEYLKIMT
B1: in the data set with His-tagged GFP-dmDcr1, the IC50 is 104 nM and the affinity, expressed as Ki, was 43.6 nM.

B2: Loqs-3, unlabeled, purified (domain or fragment, Drosophila, UniProt Q9VJY9 368-463, looked up)
chain: HKTLKNATGKKLLKLQKTCLKNNKIDYIKLLGEIATENQFEVTYVDIEEKTFSGQFQCLVQLSTLPVGVCHGSGPTAADAQRHAAQNALEYLKIMT
In the data set with His-tagged GFP-dmDcr1, B2 returned an IC50 of 9.3 nM and a Ki of 3.6 nM.

B3: Loqs-3 K460E (size-exclusion chromatography) (domain or fragment, Drosophila, UniProt Q9VJY9 368-463, looked up)
chain: HKTLKNATGKKLLKLQKTCLKNNKIDYIKLLGEIATENQFEVTYVDIEEKTFSGQFQCLVQLSTLPVGVCHGSGPTAADAQRHAAQNALEYLEIMT
As to B3, the binding result in the data set “SEC” is given as “binds”.
